Read-outs that look alike come from different tables or passages of the source.
B1: EXT017-20 scFv phage clone (scFv)
scFv: QSVVTQPPSVSAAPGQKVTISCSGSSSNIGAGYDVHWYQQLPGTAPKLLIYGNSNRPSGVPDRFSGSKSGTSASLAITGLQAEDEADYYCQSYDSSLSGSVFGGGTKLTVLGSRGGGGSGGGGSGGGGSLEMAEVQLVQSGAEVKKPGSSVKVSCKASGGTFSSYAISWVRQAPGQGLEWMGGIIPIFGTANYAQKFQGRVTITADESTSTAYMELSSLRSEDTAVYYCARYSYKYGELDTWGQGTLVTVSSTSGQAGQHHHHHHGAYPYDVPDYAS
notes: full-length scFv with His+HA tags; also called EXT017-20 phage
B2: EXT017-32 mouse IgG1 (antibody, V domains shown)
VH: EVQLVESGGGVVQPGRSLRLSCAASGFTFNNHAMHWVRQAPGKGLEWVAVISFDGDDKFYADSVKGRFTISRDNSRNTLFLQMNNLRPEDTAVYYCSRDPYHFASGSYSYFDYWGQGTLVTVSS
VL: QSVLTQPPSVSVAPGKTARITCGGNNIGSKSVHWYQQKPGQAPVLVIYYDSDRPSGIPERFSGSNSGNTATLTISRVEAGDEADYYCQVWDSSSDHYVFGTGTKVTVLG
notes: Mouse IgG1 format of clone #32 made by Eureka Therapeutics; conjugated to APC for flow cytometry of Tregs; also called EXT017-32 mIgG; EXT017-32 mIgG1
B3: EXT017-32 human IgG1 (antibody, V domains shown)
VH: B2 VH
VL: B2 VL
notes: Full-length human IgG1 with matching human lambda or kappa light chain constant region; Fc-enhanced (afucosylated); also called EXT017-32 hIgG; EXT017-32-hIgG1
B4: (FoxP4)_#5 (scFv)
scFv (VL-linker-VH-His/HA tag): QSVLTQPPSVSVAPGKTAKITCGGDNIGSKTVHWYQQKPGQAPALLIYYDSDRPSGIPERFSGSNSGNTATLSISRVEAGDEAGYFCQVWDGSSDHVIFGGGTKLTVLGSRGGGGSGGGGSGGGGSLEMAQMQLVQSGGGVVQPGRSLRLSCAASGFTFSSYAMHWVRQAPGKGLEWVAVISYDGSNKYYADSVKGRFTISRDNSKNTLYLQMNSLRAEDTAVYYCARDRHDYVMDVWGKGTTVTVSSTSGQAGQHHHHHHGAYPYDVPDYAS
notes: also called EXT018-5; EXT018-05 scFv phage clone
B5: (FoxP4)_#4 (scFv)
scFv (VL-linker-VH-His/HA tag): QSVLTQPPSVSGAPGQRVTISCTGSNSNIGADFDVHWYQQLPGTAPKLLIYGNNNRPSGVPDRFSGSKSDTSASLAITGLQAEDEADYYCQSYDISLNGYVFGTGTKVTVLGSRGGGGSGGGGSGGGGSLEMAQVQLQQWGAGLLKPSETLSLTCAVSGGSFSDYYWSWIRQPPGKGLEWIGEITHTGSTNYNPSLKSRVTISVDTSKNHFSLNLTSVTAADTAVYYCARSNGFYYDTWGQGTLVTVSSTSGQAGQHHHHHHGAYPYDVPDYAS
notes: also called EXT018-4; EXT018-04 scFv phage clone
B6: Clone #10 (scFv)
scFv (VL-linker-VH-His/HA tag): QAVLTQPPSASGTPGQRVTISCSGGSSNIGVNPVNWYQQLPGTAPKLLIFANYQRPSGVPDRFSGSKSGTSASLAISGLQSDDEAHYYCSTWDDSLNAWLFGGGTKLTVLGSRGGGGSGGGGSGGGGSLEMAEVQLVQSGAEVKKPGDSLRISCQGSGYSFTSYYISWVRQMPGKGLEWMGNIDPSDSYTNYSPSFQGHVTMSVDKSISTAYLQWSSLKASDIAIYYCVRHGFSNSPRLWFDTWGQGTLVTVSSTSGQAGQHHHHHHGAYPYDVPDYAS
notes: also called EXT017-10; EXT017-10 scFv phage clone
B7: Clone #5 (scFv)
scFv (VL-linker-VH-His/HA tag): QSALTQPPSASGSPGQSVTISCTGTSSDVGGYNYVSWYQQHPGKAPKLMIYEVSKRPSGVPDRFSGSKSGNTASLTVSGLQAEDEADYYCSSYAGSNTHVVFGGGTKLTVLGSRGGGGSGGGGSGGGGSLEMAEVQLVQSGAEVKKPGASVKISCKASRYTFTNYYIHWVRQAPGQGLEWMGIINPSGGSTTYPQNFQGRLTMTRDTSTSTVYMELSSLRSEDTAMYYCARGWSGYDPGDFWGQGTLVTVSSTSGQAGQHHHHHHGAYPYDVPDYAS
notes: also called EXT017-5; EXT017-5 scFv phage clone
B8: Clone #23 (scFv)
scFv (VL-linker-VH-His/HA tag): SYELTQPPSVSVAPGQTAWITCGGNNIGSKSVHWYQQKPGQAPILVVYDDSDRPSGIPERVSGSNSGNTATLTISRVEAGDEADYYCQVWDSSSDRWVFGGGTKLTVLGSRGGGGSGGGGSGGGGSLEMAQMQLVQSGAEVKKPGASVKVSCKASGYTFTNYGISWVRQAPGQGLEWMGWISPYNGNTNYAQKLQGRVTMTTDTSTSTAYMELRNLRSDDTAVYYCARYWDSGYAYDEWGQGTLVTVSSTSGQAGQHHHHHHGAYPYDVPDYAS
notes: also called EXT017-23; EXT017-23 scFv phage clone
B9: (FoxP4)_#2 (scFv)
scFv (VL-linker-VH-His/HA tag): QSVVTQPPSVSGAPGQRVTISCTGSSSNIGAGFDVHWYQQLPGTAPKLLIYGNSNRPSGVPDRFSGSKSATSASLAITGLQAEDEADYYCQSYDSSLSGVVFGGGTKLTVLGSRGGGGSGGGGSGGGGSLEMAQVQLVQSGAEVKKPGSSVKVSCKTSGGTFSSYAISWVRQAPGQGLEWMGGIIPIFGTANYAQRFQGRVTITADESTNTVYMELSSLRSEDTAVYYCARESWYLDEWGQGTLVTVSSTSGQAGQHHHHHHGAYPYDVPDYAS
notes: also called EXT018-2; EXT018-02 scFv phage clone

What was measured:
[1] = molecular target: T1, Foxp3-7 peptide/HLA-A*02:01 complex on the cell surface (human); assay: flow cytometry, phage on T2 + Foxp3-7 peptide; secondary only 104, unstained 81.7
T1 construct: also called Foxp3-7/HLA-A2 complex

[2] = molecular target: T2, HLA-A*02:01 on T2 cells alone (no peptide added) (human); assay: flow cytometry, phage on T2 without peptide; secondary only 100, unstained 99.5
T2 construct: TAP-deficient T2 cells without pulsed peptide; negative control target, and the HLA molecule whose stabilisation by peptides is read in the T2 stabilization assay; also called HLA-A*02 molecule; HLA-A2 molecule

[3] = molecular target: T1, Foxp3-7 peptide/HLA-A*02:01 complex on …; assay: flow cytometry, phage on T2 + Foxp3-7 peptide; secondary only 133, unstained 103
T2+EW = molecular target: T3, T2+EW (Homo sapiens, UniProt A*02:01); assay: flow cytometry, phage on T2 + EW peptide; secondary only 113, unstained 94.7
T3 construct: on the surface of T2 cells; irrelevant control peptide; also called EW peptide/HLA-A*02:01 complex on T2 cells; T2 pulsed with EW peptide

[4] = molecular target: T4, 017-mut1 peptide (…)/HLA-A*02:01 complex on T2 cells (human); assay: flow cytometry, phage on peptide-loaded T2 cells
T4 construct: Alanine mutant of Foxp3-7 at position 1, pulsed onto T2 cells; also called EXT017-mut1

[5] = molecular target: T1, Foxp3-7 peptide/HLA-A*02:01 complex on …; assay: flow cytometry, phage on peptide-loaded T2 cells
[6] = molecular target: T5, 017-mut5 peptide (…)/HLA-A*02:01 complex on T2 cells (human); assay: flow cytometry, phage on peptide-loaded T2 cells
T5 construct: Alanine mutant at position 5

[7] = molecular target: T6, 017-mut9 peptide (…)/HLA-A*02:01 complex on T2 cells (human); assay: flow cytometry, phage on peptide-loaded T2 cells
T6 construct: Alanine mutant at position 9

[8] = molecular target: T7, 017-mut3 peptide (…)/HLA-A*02:01 complex on T2 cells (human); assay: flow cytometry, phage on peptide-loaded T2 cells
T7 construct: Alanine mutant at position 3

[9] = molecular target: T8, 017-mut8 peptide (…)/HLA-A*02:01 complex on T2 cells (human); assay: flow cytometry, phage on peptide-loaded T2 cells
T8 construct: Alanine mutant at position 8; also called TLI-A8

[10] = molecular target: T9, 017-mut2 peptide (…)/HLA-A*02:01 complex on T2 cells (human); assay: flow cytometry, phage on peptide-loaded T2 cells
T9 construct: Alanine mutant at position 2, the anchor position; the peptide may load poorly onto HLA-A2; also called EXT017-mut2

[11] = molecular target: T10, 017-mut7 peptide (…)/HLA-A*02:01 complex on T2 cells (human); assay: flow cytometry, phage on peptide-loaded T2 cells
T10 construct: Alanine mutant at position 7

[12] = molecular target: T11, 017-mut4 peptide (…)/HLA-A*02:01 complex on T2 cells (human); assay: flow cytometry, phage on peptide-loaded T2 cells
T11 construct: Alanine mutant at position 4

[13] = molecular target: T2, HLA-A*02:01 on T2 cells alone (no …); assay: flow cytometry, phage on T2 without peptide
[14] = molecular target: T12, R3 (RHAMM-R3) peptide/HLA-A*02:01 complex on T2 cells (human); assay: flow cytometry, phage on T2 + R3 peptide (as the table names the samples); secondary only 109, unstained 80.9
T12 construct: Control target of the phage staining of T2 cells; also called T2 cells pulsed with R3 peptide; RHAMM 3 (R3)

[15] = molecular target: T2, HLA-A*02:01 on T2 cells alone (no …); assay: flow cytometry, phage on T2 cells, no peptide
[16] = molecular target: T13, EXT017 (Foxp3-7) peptide/HLA-A*02:01 complex, recombinant (human); assay: SPR
T13 construct: The BLI and SPR paragraphs only say 'EXT017 peptide/HLA-A*02:01 complex'; also called EXT017 peptide/HLA-A*02:01 complex; biotinylated single chain Foxp3p/HLA-A0201 complex

[17] = molecular target: T13, EXT017 (Foxp3-7) peptide/HLA-A*02:01 …; assay: SPR; printed under the head 'ka [1/Ms]': the heads of c3 and c4 are evidently interchanged
[18] = molecular target: T13, EXT017 (Foxp3-7) peptide/HLA-A*02:01 …; assay: SPR; printed under the head 'kd [1/s]': the heads of c3 and c4 are evidently interchanged (0.005167/1.12E+07 = 0.46 nM)
[19] = molecular target: T13, EXT017 (Foxp3-7) peptide/HLA-A*02:01 …; assay: SPR; printed under the head 'kd [1/s]': the heads of c3 and c4 are evidently interchanged (0.01222/5.97E+07 = 0.205 nM)
[20] = molecular target: T2, HLA-A*02:01 on T2 cells alone (no …); assay: flow cytometry, phage on T2 without peptide; secondary only 125, unstained 99.8
[21] = molecular target: T12, R3 (RHAMM-R3) peptide/HLA-A*02:01 …; assay: flow cytometry, phage on T2 + R3 peptide; secondary only 118, unstained 91.1
[22] = molecular target: T2, HLA-A*02:01 on T2 cells alone (no …); assay: flow cytometry, phage on T2 without peptide; remark: listed apart in the source

Binder	Median:FITC-A [2]	Median:FITC-A [3]	Median:FITC-A (T2+EW)	binding result [13]	Median:FITC-A [20]	Median:FITC-A [21]	binding result [22]	also measured
B1	136	1220	139	no binding	–	–	–	Median:FITC-A [1]: 2300; MFI [4]: 4070; MFI [5]: 17100; MFI [6]: 95; MFI [7]: 95.6; MFI [8]: 96.4; MFI [9]: 11100; MFI [10]: 96; MFI [11]: 94.9; MFI [12]: 93.7; Median:FITC-A [14]: 128; MFI [15]: 91.3
B2	–	–	–	–	–	–	–	Kd [16]: 0.462 nM; koff [17]: 0.00517 s⁻¹; kon [18]: 1.12e+07 M⁻¹ s⁻¹
B3	–	–	–	–	–	–	–	Kd [16]: 0.205 nM; koff [17]: 0.0122 s⁻¹; kon [19]: 5.97e+07 M⁻¹ s⁻¹
B4	–	–	–	–	155	143	no binding	–
B5	–	–	–	–	155	148	no binding	–
B6	149	1130	151	no binding	–	–	–	–
B7	142	2050	149	no binding	–	–	–	Median:FITC-A [1]: 2460; Median:FITC-A [14]: 129
B8	141	982	144	no binding	–	–	–	–
B9	–	–	–	–	157	147	no binding	–
